For test [1], the target named is T1, IL-13RA2 huFc (human).
T1 construct: Expressed in 293F cells, purified on protein A; also called human IL13RA2; recombinant IL-13RA2
The test can be described thus: SPR (Biacore T200), nickel-purified scFv. As for the experimental part: IL-13RA2 huFc was coated on the CMS chip by amino coupling, coated to about 500 RU, and the gradiently diluted antibodies were passed through the antigen-coated channel at a flow rate of 30 ul/min as a mobile phase. The running buffer was HBS-N and the temperature was 25° C. The experimental data was analyzed by BIAevaluation 3.2 and the kinetic curves were fitted using a 1:1 langmuir model.
Affinity purification was performed using a nickel column, affinity was measured using biacore T200, and the association and dissociation constants of the affinity matured antibodies are shown as in FIG. 10A.
Background: Surface plasmon resonance follows binding to a sensor surface in real time, without labels.

For test [2], the target named is T1, IL-13RA2 huFc. The test can be described thus: Biacore, induced supernatant of the scFv clone; parent 32H4.
Test [3] deals with T1, IL-13RA2 huFc. In words: SPR (Biacore), induced scFv supernatant; column head: Dissociation constant Kd(S-1).

Where a chain is given by its changes, count along the chain named.

T1 sequence (chain, as listed by the source limits assumed): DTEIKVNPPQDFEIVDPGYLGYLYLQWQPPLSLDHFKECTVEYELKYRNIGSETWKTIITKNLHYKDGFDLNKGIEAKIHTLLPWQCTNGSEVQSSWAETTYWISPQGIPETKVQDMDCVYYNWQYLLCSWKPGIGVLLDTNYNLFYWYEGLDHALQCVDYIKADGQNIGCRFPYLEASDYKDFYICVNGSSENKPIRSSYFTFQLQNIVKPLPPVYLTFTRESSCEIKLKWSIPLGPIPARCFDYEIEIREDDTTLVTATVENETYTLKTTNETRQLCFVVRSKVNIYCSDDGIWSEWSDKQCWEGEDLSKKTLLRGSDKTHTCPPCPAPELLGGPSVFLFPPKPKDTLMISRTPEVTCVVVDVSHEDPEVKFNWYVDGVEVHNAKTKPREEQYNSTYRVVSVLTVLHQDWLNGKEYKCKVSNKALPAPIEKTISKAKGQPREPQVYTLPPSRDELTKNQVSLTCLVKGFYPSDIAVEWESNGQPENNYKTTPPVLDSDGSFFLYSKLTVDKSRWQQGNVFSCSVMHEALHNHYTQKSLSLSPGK

B1: 5D7 (scFv) (scFv)
scFv: EVQLLESGGGLVQPGGSLRLSCAASGFTFSNYAMSWVRQAPGKGLEWVSGIRSSGGRTFYADSVKGRFTISRDNSKNTLYLQMNSLRAEDTAVYYCARVAFSGSFDYWGQGTLVTVSSGGGGSGGGGSGGGGSDIQMTQSPSTLSASVGDRVTITCRASQSISSWLAWYQQKPGKAPKLLIYDASSLESGVPSRFSGSGSGTEFTLTISSLQPDDFATYYCQQRNRYPPTFGQGTKVEIK
notes: also called clone 5D7
For orientation: Kd means the constant that tells how readily two partners part at equilibrium. The term koff denotes the first-order rate constant of dissociation. Lower therefore signals a long-lived complex. A word on the kon: it is the rate constant with which the complex forms. For the molecule B1, in test [1], binding was put at a Kd of 5.4 nM, the koff amounted to 0.000443 s⁻¹ and the association rate constant (kon) was determined as 82200 M⁻¹ s⁻¹. Further, the “fold lower dissociation constant Kd than the parent clone” value in test [2] is greater than 10 times. This molecule also registered a koff in test [3] of 0.00154 s⁻¹.

B2: 5G3 (scFv) (scFv)
scFv: B1 scFv with N31S, A33V, M34L, G50A, S53G, G55A, R57N, F59Y
notes: also called clone 5G3
Regarding B2, in test [1], binding was characterised by a dissociation constant (Kd) of 8.34 nM, the koff amounted to 0.000586 s⁻¹ and the kon is 70300 M⁻¹ s⁻¹. Also, the “fold lower dissociation constant Kd than the parent clone” value in test [2] is greater than 10 times. In test [3], this molecule returned a koff of 0.000941 s⁻¹.

Source of the values: patent US20190359723A1 (CARSGEN THERAPEUTICS, published 2019).
